Drawing on publication PMC4022583, this text covers Kd for 2 substances.

For the test, the target named is fluorescein labelled MPT peptide (UniProt P35579). The experiment in a line: fluorescence polarisation; S100A4 variant and fluorescein labelled MPT peptide.

“S100A4 C-terminal deletion mutant (residues 1-88, Δ13) (from UniProt P26447 1-88) (domain or fragment)” gave a Kd of 0.28 nM. Consider “wild-type S100A4 (from UniProt P26447 1-101) (natural protein)”, for which the dissociation constant Kd came to 0.12 nM. This Kd is about 2.3-fold lower than that of the substance before.

For orientation: Kd means the equilibrium constant for the complex coming apart. Read a high Kd as a looser complex.
